Measured values: PMC4281351, “Heterogeneity of quaternary structure of glucosamine-6-phosphate deaminase from Giardia lamblia” (Parasitology Research, 2014)
Values joined by “and” are separate entries in the source; they are usually repeats but may differ in a detail not shown here. Identical values can stand only once.

B1: wild-type glucosamine-6-phosphate deaminase of Giardia lamblia (GlmNagB) (enzyme, UniProt O97439 1-266, looked up)
chain: MPSIHVSKCADPAIKLAHRIAEVVRSKPNCVLGLATGSTPIPVYQELARLHREEGLDFSQVRTFNLDEYAGLPPTHDQTYRFFMEEHLFSKVNIKPENVHFLNGMASDYEKECERYEQELKAIGPCDVWLLGIGHNGHIAFNEPGSPRDSRTRVVCLTQSTIDANARFFGNDKSKVPTKALSVGIATIMESREILLLATGESKREAVTKSVKGKCETHCPASFLHEHPHCRFYVDMDAGKVVDNTCCQATNQASCCGSTSCHAAKA
notes: glucosamine-6-phosphate deaminase of Giardia lamblia, GPI1 (GN6PI) gene cloned from strain MR4; primers run from the start ATG to the stop codon; calculated mass 29.4 kDa; No tag (pETTopo-GlmNagB); In solution a mixture of monomer, homodimer and homotetramer; also called wild-type GlmNagB; native GlmNagB; source: E. coli BL21(DE3) pLysS, purified (streptomycin sulfate, ammonium sulfate, PEG, ion …)
B2: G. lamblia GlcN6P deaminase with N-terminal His6 fusion (GlmNagB-HisN) (enzyme, Giardia lamblia, UniProt O97439 1-266, looked up)
chain: MPSIHVSKCADPAIKLAHRIAEVVRSKPNCVLGLATGSTPIPVYQELARLHREEGLDFSQVRTFNLDEYAGLPPTHDQTYRFFMEEHLFSKVNIKPENVHFLNGMASDYEKECERYEQELKAIGPCDVWLLGIGHNGHIAFNEPGSPRDSRTRVVCLTQSTIDANARFFGNDKSKVPTKALSVGIATIMESREILLLATGESKREAVTKSVKGKCETHCPASFLHEHPHCRFYVDMDAGKVVDNTCCQATNQASCCGSTSCHAAKA
notes: glucosamine-6-phosphate deaminase of Giardia lamblia, GPI1 (GN6PI) gene cloned from strain MR4; NdeI/BamHI insert from the start ATG to the stop codon in pET15b; calculated mass 31.7 kDa with the tag; source: E. coli BL21(DE3) pLysS, purified (Ni2+-IDA agarose); not shown: His6, N-terminal, kept
B3: G. lamblia GlcN6P deaminase with C-terminal His6 fusion (GlmNagB-HisC) (enzyme, Giardia lamblia, UniProt O97439 1-266, looked up)
chain: MPSIHVSKCADPAIKLAHRIAEVVRSKPNCVLGLATGSTPIPVYQELARLHREEGLDFSQVRTFNLDEYAGLPPTHDQTYRFFMEEHLFSKVNIKPENVHFLNGMASDYEKECERYEQELKAIGPCDVWLLGIGHNGHIAFNEPGSPRDSRTRVVCLTQSTIDANARFFGNDKSKVPTKALSVGIATIMESREILLLATGESKREAVTKSVKGKCETHCPASFLHEHPHCRFYVDMDAGKVVDNTCCQATNQASCCGSTSCHAAKA
notes: glucosamine-6-phosphate deaminase of Giardia lamblia, GPI1 (GN6PI) gene cloned from strain MR4; forward primer from the start ATG, reverse primer adds six His codons after the last codon and then the stop; calculated mass 30.2 kDa with the tag; pETTopo-GlmNagB-HisC; hexaHis stands directly at the C-terminus; source: E. coli BL21(DE3) pLysS, purified (Ni2+-IDA agarose); not shown: His6, …

Molecular target: the molecule itself
Assay: SEC; Superdex 200HR 10/300 GL; 0.5 ml applied, 0.5 ml/min; 50 mM potassium phosphate pH 7.0, 0.15 M NaCl; masses from a plot of log molecular mass versus Kav; fresh preparations and preparations stored for several hours at 4 °C or of higher protein concentration

Stoichiometry N, 4 and 2:
B1
B2
B3
